Assay results: patent publication US7700318 (AMPROTEIN, dated 2010)

Molecular target: T1, recombinant human IL-1 receptor extracellular domain (human, UniProt P14778 18-336)
T1 construct: extracellular domain; also called in-house mammalian recombinant IL-receptor extracellular domain
T1 sequence (looked up): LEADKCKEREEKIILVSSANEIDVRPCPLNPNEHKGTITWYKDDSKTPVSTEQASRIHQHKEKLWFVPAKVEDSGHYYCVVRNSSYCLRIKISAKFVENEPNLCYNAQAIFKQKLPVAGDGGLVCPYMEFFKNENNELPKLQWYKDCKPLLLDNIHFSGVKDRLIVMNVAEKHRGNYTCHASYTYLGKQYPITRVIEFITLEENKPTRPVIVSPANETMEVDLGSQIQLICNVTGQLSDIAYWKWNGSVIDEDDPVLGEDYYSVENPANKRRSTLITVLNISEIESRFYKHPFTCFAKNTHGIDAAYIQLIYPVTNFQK
Assay: ELISA: test proteins coated on 96-well plate, IL-1 receptor extracellular domain incubated at 37 C, detected with rabbit anti human IL-1 receptor antibodies and goat anti rabbit HRP (FIG. 5)
Method: For IL-1 receptor binding assay, recombinant human IL-1 receptor extracellular domain was first produced in house using a mammalian host. TNFRII-Fc-IL-1ra, negative control TNFRII-Fc and positive control IL-1ra (KINERET) have been coated to 96-well plate. IL-1 receptor is then incubated at 37° C. for binding. The binding is detected using rabbit anti human IL-1 receptor extracellular domain antibodies, followed by goat anti rabbit […] conjugated with HRP.

B1: TNFRII-Fc (ENBREL) (Fc fusion, UniProt P20333 23-257, looked up)
chain: LPAQVAFTPYAPEPGSTCRLREYYDQTAQMCCSKCSPGQHAKVFCTKTSDTVCDSCEDSTYTQLWNWVPECLSCGSRCSSDQVETQACTREQNRICTCRPGWYCALSKQEGCRLCAPLRKCRPGFGVARPGTETSDVVCKPCAPGTFSNTTSSTDICRPHQICNVVAIPGNASMDAVCTSTSPTRSMAPGAVHLPQPVSTRSQHTQPTPEPSTAPSTSFLLPMGPSPPAEGSTGD
notes: Marketed product; also called marketed TNFRII-Fc (ENBREL); not shown: Fc part of the marketed product
B1: no binding.
